The target in assay [1] is T1, activin type IIB receptor (ActRIIB), coated on ELISA plates, Q13705.
Assay [2] has as its target T1, activin type IIB receptor (ActRIIB), …. In words: ELISA; competition: quantified conditioned media compete with biotinylated inhibin A for ActRIIB coated on the plate.
The target is the same in assay [3]. In words: ELISA; competition: quantified conditioned media compete with biotinylated activin A for ActRIIB coated on the plate.
The target is the same in assay [4]. In words: ELISA; 50 ng ActRIIB dried in each well (20 mM HEPES pH 7.4); biotinylated inhibin A or activin A in TBST pH 7.4, 1.5 h, room temperature; streptavidin-HRP; standard binding curve.

B1: α^HPWR−/βA mutant inhibin A, P05111 233-366; P08476 311-426 (complex)
chain 1: STPLMSWPWSPSALRLLQRPPEEPAAHANCHRVALNISFQELGWERWIVYPPSFIFHYCHGGCGLHIYSLLPGAQPCCAALPGTMRPLHVRTTSDGGYSFKYETVPNLLTQHCACI
chain 2: GLECDGKVNICCKKQFFVSFKDIGWNDWIIAPSGYHANYCEGECPSHIAGTSGSSLSFHSTVINHYRMRGHSPFANLKSCCVPTKLRPMSMLYYDDGQNIIKKDIQNMIVEECGCS
As to B1, in assay [1], the IC50 of antagonism of activin A (0.4 nM) in the FSHβ-luciferase assay in LβT2 cells, with transfected betaglycan is 0.27 nM and the IC50 of antagonism of activin A (0.4 nM) in the FSHβ-luciferase assay in LβT2 cells, without betaglycan is 0.31 nM. The IC50 in assay [2] stood at 2.96 nM.

B2: wild type chicken inhibin A (α^Chwt/βA), P43031 217-329; P08476 311-426 (complex)
chain 1: SAVPWSPAALSLLQRPSEDVAAHTNCRRASLNISFEELGWDNWIVHPSSFVFHYCHGNCAEGHGLSHRLGVQLCCAALPGTMRSLRVRTTSDGGYSFKYETVPNILAQDCTCV
chain 2: B1 chain 2
B2 showed an IC50 in assay [2] of 5.55 nM.

B3: α^Hext−/βA mutant inhibin A, P05111 233-366; P08476 311-426 (complex)
chain 1: STPLMANCHRVALNISFQELGWERWIVYPPSFIFHYCHGGCGLHIPPNLSLPVPGAPPTPAQPYSLLPGAQPCCAALPGTMRPLHVRTTSDGGYSFKYETVPNLLTQHCACI
chain 2: B1 chain 2
modifications: here or on the partner: disulfide-linked heterodimer; alpha-subunit N-glycosylated (CHO-expressed)
B3 had an IC50 in assay [2] of 128 nM.

B4: wild type human activin A (βA/βA dimer), P08476 311-426 (complex)
chain: B1 chain 2
In turn, B4 had an IC50 in assay [3] of 4.14 nM.

B5: biotinylated human inhibin A, P05111 233-366; P08476 311-426 (complex)
chain 1: STPLMSWPWSPSALRLLQRPPEEPAAHANCHRVALNISFQELGWERWIVYPPSFIFHYCHGGCGLHIPPNLSLPVPGAPPTPAQPYSLLPGAQPCCAALPGTMRPLHVRTTSDGGYSFKYETVPNLLTQHCACI
chain 2: B1 chain 2
modifications: here or on the partner: biotin (EZ-link Micro Sulfo-NHS-LC-biotinylation Kit), sites not stated | biotin (EZ-link Micro Sulfo-NHS-LC-biotinylation Kit), sites not stated
In the case of B5, the EC50 in assay [4] was 2.73 nM. That is a single-digit nanomolar value.

B6: biotinylated human activin A, P08476 311-426 (complex)
chain: B1 chain 2
modifications: here or on the partner: biotin (EZ-link Micro Sulfo-NHS-LC-biotinylation Kit), sites not stated
With B6, the EC50 in assay [4] stood at 1.1 nM. Against the preceding molecule, the EC50 is about 2.5-fold lower.

B7: wild type human inhibin A (α^Hwt/βA), P05111 233-366; P08476 311-426 (complex)
chain 1: B5 chain 1
chain 2: B1 chain 2
B7: the IC50 in assay [2] was found to be 9.01 nM.

These data come from PMC2832003.
